According to publication doi:10.1101/2021.03.11.435010 (bioRxiv, 2021):

T1: MED17 (human, UniProt Q9NVC6 1-651)
T1 sequence: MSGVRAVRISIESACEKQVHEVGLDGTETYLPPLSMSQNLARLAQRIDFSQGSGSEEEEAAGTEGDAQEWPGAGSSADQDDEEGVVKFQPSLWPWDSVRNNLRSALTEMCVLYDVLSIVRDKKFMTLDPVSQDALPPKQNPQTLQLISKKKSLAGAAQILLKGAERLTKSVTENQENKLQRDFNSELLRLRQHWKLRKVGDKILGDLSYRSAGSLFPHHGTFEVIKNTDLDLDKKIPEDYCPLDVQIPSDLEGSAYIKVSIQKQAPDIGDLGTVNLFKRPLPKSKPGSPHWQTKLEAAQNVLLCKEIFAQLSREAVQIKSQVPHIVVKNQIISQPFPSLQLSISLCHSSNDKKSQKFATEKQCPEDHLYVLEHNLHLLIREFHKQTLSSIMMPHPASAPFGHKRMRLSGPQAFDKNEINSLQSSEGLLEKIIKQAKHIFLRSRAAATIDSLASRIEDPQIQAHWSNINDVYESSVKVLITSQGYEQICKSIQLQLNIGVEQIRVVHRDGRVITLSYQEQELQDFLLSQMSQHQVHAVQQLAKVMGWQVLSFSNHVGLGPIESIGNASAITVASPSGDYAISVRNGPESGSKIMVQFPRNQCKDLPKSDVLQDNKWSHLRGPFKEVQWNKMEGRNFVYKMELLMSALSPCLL

T2: MED30 (human, UniProt Q96HR3 1-178)
T2 sequence: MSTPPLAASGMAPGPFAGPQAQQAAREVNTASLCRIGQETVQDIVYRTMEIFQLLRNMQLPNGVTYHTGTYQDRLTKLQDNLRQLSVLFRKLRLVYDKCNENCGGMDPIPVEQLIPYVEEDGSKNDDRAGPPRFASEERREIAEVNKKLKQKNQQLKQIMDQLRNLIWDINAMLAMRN

T3: MED7 (human, UniProt O43513 1-233)
T3 sequence: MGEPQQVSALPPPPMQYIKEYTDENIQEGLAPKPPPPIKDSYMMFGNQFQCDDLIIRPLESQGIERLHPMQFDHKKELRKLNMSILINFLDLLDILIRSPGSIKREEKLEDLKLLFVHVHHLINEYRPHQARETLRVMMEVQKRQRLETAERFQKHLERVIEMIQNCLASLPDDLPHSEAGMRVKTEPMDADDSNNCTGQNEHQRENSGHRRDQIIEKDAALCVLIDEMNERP

T4: MED4 (human, UniProt Q9NPJ6 1-270)
T4 sequence: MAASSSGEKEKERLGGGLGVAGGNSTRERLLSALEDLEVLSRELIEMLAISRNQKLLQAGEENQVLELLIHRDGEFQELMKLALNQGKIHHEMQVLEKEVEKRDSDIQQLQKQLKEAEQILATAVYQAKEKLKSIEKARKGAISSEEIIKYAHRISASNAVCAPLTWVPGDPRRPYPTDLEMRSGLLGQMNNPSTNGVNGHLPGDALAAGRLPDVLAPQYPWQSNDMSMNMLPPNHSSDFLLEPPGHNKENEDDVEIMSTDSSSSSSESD

T5: TFIIB (human, UniProt Q00403 1-316)
T5 sequence: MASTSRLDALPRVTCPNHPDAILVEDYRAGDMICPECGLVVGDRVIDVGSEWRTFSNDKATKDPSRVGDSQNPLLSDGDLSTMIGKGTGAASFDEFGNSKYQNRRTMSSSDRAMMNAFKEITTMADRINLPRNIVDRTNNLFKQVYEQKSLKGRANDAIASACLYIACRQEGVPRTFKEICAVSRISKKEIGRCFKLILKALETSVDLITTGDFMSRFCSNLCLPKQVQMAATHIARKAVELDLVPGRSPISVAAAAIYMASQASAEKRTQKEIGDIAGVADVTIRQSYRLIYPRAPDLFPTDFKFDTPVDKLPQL

T6: MED8 (human, UniProt Q96G25 1-268)
T6 sequence: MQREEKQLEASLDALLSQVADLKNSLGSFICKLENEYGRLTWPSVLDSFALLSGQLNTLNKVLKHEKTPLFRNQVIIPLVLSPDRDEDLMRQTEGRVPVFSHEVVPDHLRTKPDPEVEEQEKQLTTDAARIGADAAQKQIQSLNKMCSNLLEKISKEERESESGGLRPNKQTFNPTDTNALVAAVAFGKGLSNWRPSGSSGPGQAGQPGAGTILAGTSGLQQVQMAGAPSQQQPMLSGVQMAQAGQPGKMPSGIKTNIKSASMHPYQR

B1: MED27 (natural protein)
chain: MADVINVSVNLEAFSQAISAIQALRSSVSRVFDCLKDGMRNKETLEGREKAFIAHFQDNLHSVNRDLNELERLSNLVGKPSENHPLHNSGLLSLDPVQDKTPLYSQLLQAYKWSNKLQYHAGLASGLLNQQSLKRSANQMGVSAKRRPKAQPTTLVLPPQYVDDVISRIDRMFPEMSIHLSRPNGTSAMLLVTLGKVLKVIVVMRSLFIDRTIVKGYNENVYTEDGKLDIWSKSNYQVFQKVTDHATTALLHYQLPQMPDVVVRSFMTWLRSYIKLFQAPCQRCGKFLQDGLPPTWRDFRTLEAFHDTCRQ
B2: MED11 (natural protein)
chain: MATYSLANERLRALEDIEREIGAILQNAGTVILELSKEKTNERLLDRQAAAFTASVQHVEAELSAQIRYLTQVATGQPHEGSSYSSRKDCQMALKRVDYARLKLSDVARTCEQMLEN
B3: MED31 (natural protein)
chain: MAAAVAMETDDAGNRLRFQLELEFVQCLANPNYLNFLAQRGYFKDKAFVNYLKYLLYWKDPEYAKYLKYPQCLHMLELLQYEHFRKELVNAQCAKFIDEQQILHWQHYSRKRMRLQQALAEQQQQNNTSGK
B4: MED28 (natural protein)
chain: MAAPLGGMFSGQPPGPPQAPPGLPGQASLLQAAPGAPRPSSSTLVDELESSFEACFASLVSQDYVNGTDQEEIRTGVDQCIQKFLDIARQTECFFLQKRLQLSVQKPEQVIKEDVSELRNELQRKDALVQKHLTKLRHWQQVLEDINVQHKKPADIPQGSLAYLEQASANIPAPLKPT
B5: MED18 (natural protein)
chain: MEAPPVTMMPVTGGTINMMEYLLQGSVLDHSLESLIHRLRGLCDNMEPETFLDHEMVFLLKGQQASPFVLRARRSMDRAGAPWHLRYLGQPEMGDKNRHALVRNCVDIATSENLTDFLMEMGFRMDHEFVAKGHLFRKGIMKIMVYKIFRILVPGNTDSTEALSLSYLVELSVVAPAGQDMVSDDMKNFAEQLKPLVHLEKIDPKRLM
B6: MED20 (natural protein)
chain: MGVTCVSQMPVAEGKSVQQTVELLTRKLEMLGAEKQGTFCVDCETYHTAASTLGSQGQTGKLMYVMHNSEYPLSCFALFENGPCLIADTNFDVLMVKLKGFFQSAKASKIETRGTRYQYCDFLVKVGTVTMGPSARGISVEVEYGPCVVASDCWSLLLEFLQSFLGSHTPGAPAVFGNRHDAVYGPADTMVQYMELFNKIRKQQQVPVAGIR
B7: MED6 (natural protein)
chain: MAAVDIRDNLLGISWVDSSWIPILNSGSVLDYFSERSNPFYDRTCNNEVVKMQRLTLEHLNQMVGIEYILLHAQEPILFIIRKQQRQSPAQVIPLADYYIIAGVIYQAPDLGSVINSRVLTAVHGIQSAFDEAMSYCRYHPSKGYWWHFKDHEEQDKVRPKAKRKEEPSSIFQRQRVDALLLDLRQKFPPKFVQLKPGEKPVPVDQTKKEAEPIPETVKPEEKETTKNVQQTVSAKGPPEKRMRLQ

Key:
Assay in all cases: cryo-EM structure
MED14 = MED14 (human, UniProt O60244 1-1454)
MED17 = target: T1, MED17
MED30 = target: T2, MED30
MED28 = target: B4
MED7 = target: T3, MED7
MED4 = target: T4, MED4
TFIIB = target: T5, TFIIB
MED20 = target: B6
MED8 = target: T6, MED8
MED27 = target: B1

Sequence of MED14 (O60244 whole entry): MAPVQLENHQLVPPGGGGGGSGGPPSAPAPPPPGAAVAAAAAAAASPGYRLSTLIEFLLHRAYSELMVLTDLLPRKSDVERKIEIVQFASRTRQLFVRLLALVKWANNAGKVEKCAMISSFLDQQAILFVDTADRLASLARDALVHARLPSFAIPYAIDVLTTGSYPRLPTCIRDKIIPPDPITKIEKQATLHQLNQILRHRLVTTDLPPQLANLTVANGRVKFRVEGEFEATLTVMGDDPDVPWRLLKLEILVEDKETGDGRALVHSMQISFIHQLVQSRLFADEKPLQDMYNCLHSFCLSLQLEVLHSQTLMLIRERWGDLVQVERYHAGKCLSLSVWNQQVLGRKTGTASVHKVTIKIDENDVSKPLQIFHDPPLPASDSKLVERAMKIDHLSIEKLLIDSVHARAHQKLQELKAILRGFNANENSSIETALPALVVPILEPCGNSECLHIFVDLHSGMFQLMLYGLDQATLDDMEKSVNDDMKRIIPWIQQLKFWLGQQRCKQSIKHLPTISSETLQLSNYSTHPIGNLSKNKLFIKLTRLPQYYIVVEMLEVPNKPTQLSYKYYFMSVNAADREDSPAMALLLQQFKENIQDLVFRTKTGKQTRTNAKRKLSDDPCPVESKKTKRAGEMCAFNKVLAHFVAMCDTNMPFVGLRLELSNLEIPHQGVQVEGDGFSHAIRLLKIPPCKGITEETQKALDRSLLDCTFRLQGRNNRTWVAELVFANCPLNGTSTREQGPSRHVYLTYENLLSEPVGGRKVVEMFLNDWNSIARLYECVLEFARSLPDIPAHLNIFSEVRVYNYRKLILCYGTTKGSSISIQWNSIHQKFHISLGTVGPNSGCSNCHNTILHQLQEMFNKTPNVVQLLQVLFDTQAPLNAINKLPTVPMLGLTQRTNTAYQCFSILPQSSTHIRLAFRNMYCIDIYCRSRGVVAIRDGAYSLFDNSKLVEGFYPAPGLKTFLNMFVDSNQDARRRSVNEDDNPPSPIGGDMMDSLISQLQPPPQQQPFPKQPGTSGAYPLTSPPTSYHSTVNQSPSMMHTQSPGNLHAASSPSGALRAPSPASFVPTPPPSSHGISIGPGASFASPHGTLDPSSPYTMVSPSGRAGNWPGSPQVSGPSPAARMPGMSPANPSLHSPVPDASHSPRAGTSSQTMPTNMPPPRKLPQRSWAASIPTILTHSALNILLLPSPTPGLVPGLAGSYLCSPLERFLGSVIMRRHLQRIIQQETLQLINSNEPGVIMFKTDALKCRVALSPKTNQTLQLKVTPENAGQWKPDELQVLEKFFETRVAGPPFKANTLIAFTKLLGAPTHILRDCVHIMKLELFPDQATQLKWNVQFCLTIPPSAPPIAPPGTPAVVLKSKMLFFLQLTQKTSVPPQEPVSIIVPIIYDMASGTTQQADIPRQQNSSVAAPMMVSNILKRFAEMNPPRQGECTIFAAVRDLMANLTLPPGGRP

Binder: B1
binding result (MED14): binds
binding result (MED17): binds

Binder: B2
binding result (MED30): binds
binding result (MED28): binds

Binder: B3
binding result (MED14): binds
binding result (MED7): binds
binding result (MED4): binds

Binder: B4
binding result (MED30): binds

Binder: B5
binding result (TFIIB): binds
binding result (MED20): binds
binding result (MED8): binds

Binder: B6
binding result (MED8): binds
binding result (MED27): binds

Binder: B7
binding result (MED8): binds
